Source: the supplement of paper PMC10126150
± gives the standard deviation of the averaged measurements.

Test system: ATP
Test: switch fluorescence ratio, 500 uM ATP over buffer (Cy3 cluster intensity, sum of 5 cycles each) (fold (ratio)); higher = stronger signal-on switching upon ATP binding; sequences stand for … in TCGTCGGCAGCGTCAGATGTGTATAAGAGACAGTTTTTTTTTTTTTTTTTTTTTTTTT…TC
Settings: aptamer strand: ATP DNA aptamer (quencher-CACCTGGGGGAGTATTGCGGAGGAAGG + anchor), 100 nM annealed; ATP concentration: 500 uM
Outline: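 Between each of five buffer/ATP cycles, the flow-cell was stripped with NaOH and re-annealed. Each cycle imaged Cy3-labelled switching-strand clusters, annealed to 100 nM quencher-labelled ATP aptamer on a modified Illumina MiSeq flow-cell, first in selection buffer and then after 15 min with 500 uM ATP at 22 °C. The fluorescence ratio is summed target-cycle over summed buffer-cycle Cy3 intensity per cluster, averaged per switch-domain sequence, with clusters outside 100-1000 RFU excluded.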
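Further: ATP exposure 15 min at 22 °C before imaging.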

In the case of GACTCGGTGC, the switch fluorescence ratio is reported as 1.05 ± 0.019.
Work on GACTCTGAGT yielded a switch fluorescence ratio of 1.01 ± 0.017.
GACTCTTGAA gave a switch fluorescence ratio of 0.995 ± 0.071.
Sequence GACTGATCGT has a switch fluorescence ratio of 1.008 ± 0.0059.
Sequence GACTGATTGG has a switch fluorescence ratio of 1.02 ± 0.012.
In the case of GACTGGCTGG, the switch fluorescence ratio is reported as 1 ± 0.03.
GACTGGGGTA gave a switch fluorescence ratio of 0.988 ± 0.011.
With GACTGGGTG the switch fluorescence ratio was 1.04 ± 0.014.
GACTGGGTTG was tested, and the switch fluorescence ratio was 0.9668 ± 0.0011.
Work on GACTGTGATC yielded a switch fluorescence ratio of 1.037 ± 0.0042.
Sequence GACTGTTCGG has a switch fluorescence ratio of 0.985 ± 0.025.
With GACTTAGAAT the switch fluorescence ratio was 1 ± 0.0026.
GACTTATCTA gave a switch fluorescence ratio of 1.016 ± 0.0073.
Work on GACTTCGTGG yielded a switch fluorescence ratio of 1.01 ± 0.056.
GACTTGATTA showed a switch fluorescence ratio of 0.9719 ± 0.0062.
For GACTTGGGAT, the switch fluorescence ratio was 1.034 ± 0.0019.
In the case of GACTTGGGGC, the switch fluorescence ratio is reported as 0.993 ± 0.037.
With GACTTTACGG the switch fluorescence ratio was 1.06 ± 0.048.
In the case of GACTTTGGAG, the switch fluorescence ratio is reported as 1 ± 0.027.
Work on GACTTTGGGA yielded a switch fluorescence ratio of 0.999 ± 0.023.
With GACTTTGTGC the switch fluorescence ratio was 0.9772 ± 0.0022.
Work on GACTTTTCTT yielded a switch fluorescence ratio of 0.971 ± 0.033.
GACTTTTTGG showed a switch fluorescence ratio of 0.998 ± 0.027.
GAGAAACCGG was tested, and the switch fluorescence ratio was 1.03 ± 0.019.
GAGAAATGTG gave a switch fluorescence ratio of 1.03 ± 0.011.
GAGAAGAAGC showed a switch fluorescence ratio of 1 ± 0.025.
Sequence GAGAAGGATT has a switch fluorescence ratio of 0.99 ± 0.046.
GAGAATCGGA showed a switch fluorescence ratio of 0.965 ± 0.012.
GAGACATTGG showed a switch fluorescence ratio of 1 ± 0.062.
Work on GAGACCTATT yielded a switch fluorescence ratio of 0.993 ± 0.035.
With GAGAGCTATC the switch fluorescence ratio was 0.9848 ± 0.0024.
GAGAGCTTGT was tested, and the switch fluorescence ratio was 0.956 ± 0.027.
For GAGAGGAGGT, the switch fluorescence ratio was 1.022 ± 0.0029.
GAGAGGGAGG gave a switch fluorescence ratio of 0.979 ± 0.015.
GAGAGGGATT gave a switch fluorescence ratio of 1.03 ± 0.015.
GAGAGGGGAA gave a switch fluorescence ratio of 1.01 ± 0.009.
GAGAGGGGAG gave a switch fluorescence ratio of 0.983 ± 0.025.
GAGAGGGGGA gave a switch fluorescence ratio of 0.97 ± 0.036.
Sequence GAGAGGGGGG has a switch fluorescence ratio of 1 ± 0.025.
GAGAGGGTTT gave a switch fluorescence ratio of 1 ± 0.011.
For GAGAGTAATT, the switch fluorescence ratio was 1.01 ± 0.051.
Work on GAGAGTATTT yielded a switch fluorescence ratio of 0.995 ± 0.073.
GAGAGTGGGG was tested, and the switch fluorescence ratio was 0.985 ± 0.037.
In the case of GAGAGTTGGT, the switch fluorescence ratio is reported as 1.007 ± 0.0073.
GAGAGTTTAA showed a switch fluorescence ratio of 1.013 ± 0.0051.
GAGATAAAAG showed a switch fluorescence ratio of 1.01 ± 0.03.
Work on GAGATAGTGT yielded a switch fluorescence ratio of 0.991 ± 0.036.
With GAGATAGTTT the switch fluorescence ratio was 0.995 ± 0.042.
GAGATGAGGA showed a switch fluorescence ratio of 0.97 ± 0.024.
GAGATGGGGT showed a switch fluorescence ratio of 0.995 ± 0.016.
For GAGATGTCTT, the switch fluorescence ratio was 0.9833 ± 0.0078.
Work on GAGATTGGGA yielded a switch fluorescence ratio of 1.04 ± 0.045.
Sequence GAGATTTAGG has a switch fluorescence ratio of 0.969 ± 0.034.
GAGATTTATT was tested, and the switch fluorescence ratio was 0.985 ± 0.057.
For GAGATTTCAT, the switch fluorescence ratio was 0.982 ± 0.036.
With GAGATTTGGA the switch fluorescence ratio was 1.03 ± 0.029.
For GAGCAAAAAG, the switch fluorescence ratio was 1.05 ± 0.042.
Sequence GAGCAACCTT has a switch fluorescence ratio of 1.45 ± 0.014.
Work on GAGCAGAGGT yielded a switch fluorescence ratio of 0.984 ± 0.011.
GAGCAGGTTT was tested, and the switch fluorescence ratio was 1.6 ± 0.92.
With GAGCCCAGGG the switch fluorescence ratio was 1.96 ± 0.82.
For GAGCCGCCAG, the switch fluorescence ratio was 1.03 ± 0.045.
GAGCCTCGGA gave a switch fluorescence ratio of 1.29 ± 0.44.
For GAGCGATGGT, the switch fluorescence ratio was 1.12 ± 0.021.
In the case of GAGCGCGATT, the switch fluorescence ratio is reported as 1.03 ± 0.036.
Work on GAGCGGTATC yielded a switch fluorescence ratio of 0.997 ± 0.043.
GAGCGTGTGA gave a switch fluorescence ratio of 1.02 ± 0.019.
For GAGCTAGGAA, the switch fluorescence ratio was 0.981 ± 0.058.
Sequence GAGCTAGGGA has a switch fluorescence ratio of 1.011 ± 0.0013.
GAGCTATGGG showed a switch fluorescence ratio of 0.983 ± 0.043.
GAGCTATTCG gave a switch fluorescence ratio of 1.01 ± 0.047.
In the case of GAGCTCGTGG, the switch fluorescence ratio is reported as 1.03 ± 0.051.
Work on GAGCTGACTT yielded a switch fluorescence ratio of 1.02 ± 0.016.
GAGCTGGGTG showed a switch fluorescence ratio of 1.09 ± 0.043.
GAGCTGTATG showed a switch fluorescence ratio of 1.03 ± 0.014.
With GAGCTTCTCT the switch fluorescence ratio was 1.0194 ± 9.9e-05.
For GAGCTTTTGG, the switch fluorescence ratio was 1.03 ± 0.068.
GAGGAAATGG gave a switch fluorescence ratio of 1.024 ± 0.0046.
GAGGAAATTG gave a switch fluorescence ratio of 0.963 ± 0.054.
Work on GAGGAAGTCT yielded a switch fluorescence ratio of 1.03 ± 0.026.
GAGGAATGGC showed a switch fluorescence ratio of 0.9828 ± 0.0022.
Work on GAGGAGCTTG yielded a switch fluorescence ratio of 0.94 ± 0.096.
Sequence GAGGAGGGAG has a switch fluorescence ratio of 0.998 ± 0.014.
Sequence GAGGAGGTTG has a switch fluorescence ratio of 1.027 ± 0.003.
Sequence GAGGATGTTA has a switch fluorescence ratio of 1.03 ± 0.036.
Work on GAGGCAGAAA yielded a switch fluorescence ratio of 1.09 ± 0.044.
Sequence GAGGCAGAAT has a switch fluorescence ratio of 1.03 ± 0.012.
For GAGGCGTACG, the switch fluorescence ratio was 1.04 ± 0.021.
In the case of GAGGCGTGTG, the switch fluorescence ratio is reported as 0.985 ± 0.029.
Work on GAGGCTTGGG yielded a switch fluorescence ratio of 0.99 ± 0.011.
With GAGGGAAACA the switch fluorescence ratio was 1.01 ± 0.017.
Sequence GAGGGAAACT has a switch fluorescence ratio of 1.05 ± 0.11.
With GAGGGAATCG the switch fluorescence ratio was 0.9635 ± 0.001.
Work on GAGGGAGAAA yielded a switch fluorescence ratio of 1.03 ± 0.038.
Work on GAGGGAGATG yielded a switch fluorescence ratio of 1.03 ± 0.018.
In the case of GAGGGATATA, the switch fluorescence ratio is reported as 0.996 ± 0.043.
With GAGGGATGTA the switch fluorescence ratio was 1.01 ± 0.022.
Work on GAGGGATTGG yielded a switch fluorescence ratio of 1.05 ± 0.12.
Work on GAGGGCACGA yielded a switch fluorescence ratio of 1.09 ± 0.086.
For GAGGGCAGCA, the switch fluorescence ratio was 1.01 ± 0.048.
GAGGGCCTCA gave a switch fluorescence ratio of 1 ± 0.033.
GAGGGCGGGA showed a switch fluorescence ratio of 1.01 ± 0.047.
Sequence GAGGGCGTTT has a switch fluorescence ratio of 0.98 ± 0.027.
In the case of GAGGGCTTTT, the switch fluorescence ratio is reported as 0.98 ± 0.017.
GAGGGGAAAA gave a switch fluorescence ratio of 0.99 ± 0.04.
In the case of GAGGGGAGGG, the switch fluorescence ratio is reported as 1.04 ± 0.065.
GAGGGGATTT showed a switch fluorescence ratio of 1.01 ± 0.013.
In the case of GAGGGGCCTG, the switch fluorescence ratio is reported as 1.01 ± 0.083.
GAGGGGCGCC gave a switch fluorescence ratio of 0.987 ± 0.016.
GAGGGGCGGT was tested, and the switch fluorescence ratio was 1.02 ± 0.026.
GAGGGGCGTG showed a switch fluorescence ratio of 1 ± 0.022.
GAGGGGCTGG gave a switch fluorescence ratio of 0.984 ± 0.046.
Work on GAGGGGGACT yielded a switch fluorescence ratio of 1.13 ± 0.19.
With GAGGGGGAGC the switch fluorescence ratio was 1.03 ± 0.089.
GAGGGGGATG gave a switch fluorescence ratio of 0.979 ± 0.026.
Work on GAGGGGGGAT yielded a switch fluorescence ratio of 1.01 ± 0.033.
For GAGGGGGGGA, the switch fluorescence ratio was 1 ± 0.044.
In the case of GAGGGGTGTC, the switch fluorescence ratio is reported as 0.978 ± 0.03.
With GAGGGGTTG the switch fluorescence ratio was 0.988 ± 0.034.
Work on GAGGGTATTA yielded a switch fluorescence ratio of 1.02 ± 0.019.
Sequence GAGGGTCGTG has a switch fluorescence ratio of 0.9629 ± 0.0013.
Sequence GAGGGTCTTT has a switch fluorescence ratio of 0.969 ± 0.025.
Sequence GAGGGTGCAT has a switch fluorescence ratio of 0.987 ± 0.043.
Sequence GAGGGTTCCG has a switch fluorescence ratio of 1.01 ± 0.026.
GAGGGTTGAA was tested, and the switch fluorescence ratio was 0.999 ± 0.033.
For GAGGTAAGTG, the switch fluorescence ratio was 0.954 ± 0.024.
GAGGTACGTA showed a switch fluorescence ratio of 1.01 ± 0.027.
With GAGGTAGCTA the switch fluorescence ratio was 1.03 ± 0.0051.
Work on GAGGTAGGGA yielded a switch fluorescence ratio of 1.06 ± 0.13.
With GAGGTAGTCT the switch fluorescence ratio was 1.07 ± 0.14.
GAGGTCCACT showed a switch fluorescence ratio of 1.01 ± 0.044.
Sequence GAGGTCGGGC has a switch fluorescence ratio of 0.94 ± 0.039.
GAGGTCTGTG gave a switch fluorescence ratio of 0.965 ± 0.018.
GAGGTGAAAT gave a switch fluorescence ratio of 1.01 ± 0.027.
In the case of GAGGTGACTG, the switch fluorescence ratio is reported as 1.01 ± 0.015.
In the case of GAGGTGAGTG, the switch fluorescence ratio is reported as 0.9921 ± 0.0066.
Sequence GAGGTGATAG has a switch fluorescence ratio of 1.036 ± 0.0033.
Sequence GAGGTGTAGA has a switch fluorescence ratio of 1.05 ± 0.022.
GAGGTGTAGG gave a switch fluorescence ratio of 1.01 ± 0.02.
Work on GAGGTGTTCA yielded a switch fluorescence ratio of 1.01 ± 0.02.
GAGGTTCCCG gave a switch fluorescence ratio of 0.984 ± 0.051.
With GAGGTTCGGT the switch fluorescence ratio was 1.019 ± 0.0037.
In the case of GAGGTTGGGG, the switch fluorescence ratio is reported as 1.02 ± 0.059.
GAGGTTGTTT showed a switch fluorescence ratio of 0.977 ± 0.02.
In the case of GAGGTTTAGA, the switch fluorescence ratio is reported as 0.98753 ± 9.8e-05.
For GAGGTTTGTA, the switch fluorescence ratio was 0.974 ± 0.013.
With GAGTAAGACA the switch fluorescence ratio was 0.99 ± 0.013.
For GAGTAATGCG, the switch fluorescence ratio was 0.943 ± 0.066.
With GAGTACCACT the switch fluorescence ratio was 1.01 ± 0.078.
GAGTAGATGT showed a switch fluorescence ratio of 0.983 ± 0.011.
Work on GAGTAGGGTA yielded a switch fluorescence ratio of 1.01 ± 0.016.
With GAGTATATGT the switch fluorescence ratio was 0.9998 ± 0.0099.
In the case of GAGTATCTAG, the switch fluorescence ratio is reported as 0.986 ± 0.038.
In the case of GAGTATGTGG, the switch fluorescence ratio is reported as 0.9516 ± 0.0029.
Sequence GAGTCAATTT has a switch fluorescence ratio of 1.0118 ± 0.00063.
In the case of GAGTCACGTC, the switch fluorescence ratio is reported as 0.9468 ± 0.0088.
With GAGTCATGCG the switch fluorescence ratio was 0.911 ± 0.093.
